# Results reported in patent US11856945B2, “Methods and systems for preparing and preserving a biological sample” (Washington University, priority 2017, dated 2024).
# B1: neutrophil gelatinase-associated lipocalin (protein, UniProt P80188 21-198, looked up)
# Neutrophil …: QDSTSDLIPAPPLSKVPLQQNFQDNQFQGKWYVVGLAGNAILREDKDPQKMYATIYELKEDKSYNVTSVLFRKKKCDYWIRTFVPGCQPGEFTLGNIKSYPGLTSYLVRVVSTNYNQHAMVFFKKVSQNREYFKITLYGRTKELTSELKENFIRFSKSLGLPENHIVFPVPIDQCIDG
# notes: urinary biomarker for acute kidney injury; human recombinant
# Legend:
# [1] = NGAL quantity in eluates by BCA assay; format: physicochemical; conditions: paper card stored at 40° C. for 1 week; % of spiked amount
# [2] = Preservation of NGAL in patient urine dried on paper (ELISA); format: physicochemical; conditions: three acute kidney injury patients, 1 week
# Experimental: Following the successful optimization of ZIF-8 encapsulation using spiked artificial urine samples, the applicability of this technique to patient urine samples was evaluated. Three acute kidney injury patients with different urinary NGAL levels (Patient #1: 32.8 ng/ml, Patient #2: 17.4 ng/ml and Patient #3: 97.5 ng/ml, quantified by ELISA and confirmed by Western blotting, FIG. 15) were selected. […] Thus, protein biomarkers in the mixture are not subjected to extremely low or high pH (Table 2). To assess the preservation efficacy of NGAL, the urine samples with and without ZIF-8 encapsulation dried on paper substrates were stored at 25 or 40° C. for 1 week. NGAL concentration in the eluate was quantified using ELISA. […] Frozen liquid sample (−20° C.) was used as a reference. POSs represent 3 distinct Positive Control signal intensities (POS1>POS2>POS3). Results are the mean and standard deviation from two parallel dots for each biomarker. The frozen-liquid samples stored at −20° C. were employed as the reference.
# Sample preparation. NGAL-spiked artificial urine (50 μg/ml of NGAL, 25 μl) or patient urine (25 μl) was first mixed with 2-methylimidazole aqueous solution (12.5 μl) and then zinc acetate dihydrate aqueous solution (12.5 μl). The final concentrations of 2-methylimidazole after mixing were 320 mM, 160 mM, 80 mM and 40 mM. […]
molecule,measurement,setting,value
B1,proteins eluted as measured by BCA assay,[1],70%
same,NGAL preservation in patient urine,[2]; 25° C.,less than 40%
same,NGAL preservation in patient urine,[2]; 40° C.,less than 40%
